Data as given in patent US20250019435A1 (ALBERT EINSTEIN COLLEGE OF MEDICINE, published 2025).

Experiments:
[1] = target: T1, KIR2DL5A*005 allele expressed on 3T3 cells (human); assay: flow cytometry, transduced 3T3 cells, mAb 5 µg/mL
T1 construct: also called 2D5A*005
Experimental: (§1) FIG. 8A-8D: Generation and characterization of anti-KIR2DL5-specific mAbs. (A) The specificity of anti-KIR2DL5 mAb clone F8B30. 3T3 cells transduced with indicated KIR family members were stained with 5 μg/mL of F8B30 (open) or mIgG1 (shaded). (B) 3T3 cells transduced with DO-deleted (KIR2DL5 dD0) or D2-deleted KIR2DL5 (KIR2DL5 dD2) were stained with 5 μg/mL of clone F8B30 or commercial clone UP-R1. (C) Anti-KIR2DL5 mAb clone F8B30 recognized different KIR2DL5A and 5B alleles. 3T3 cells transduced with indicated alleles were stained with 5 μg/mL of F8B30 or UP-R1 (open) or mIgG1 (shaded). (D) Anti-KIR2DL5 mAb clone F8B30 recognized different KIR2DL5 DO domain variants. 3T3 cells transduced with indicated DO variants were stained with 0.025 μg/mL of F8B30 or UP-R1 (open) or mIgG1 (shaded). In A-D, data are representative of 2 independent experiments.

[2] = target: T2, D0-deleted KIR2DL5 expressed on 3T3 cells (human, UniProt Q8N109 119-375); assay: flow cytometry, transduced 3T3 cells
T2 construct: the signal peptide 1-21 is left out; also called KIR2DL5 dD0; DO-deleted KIR2DL5
Experimental: as §1

[3] = target: KIR2DL5 D0 variant G97S expressed on 3T3 cells (human, UniProt Q8N109 22-375); assay: flow cytometry on 3T3 cells expressing the KIR2DL5 D0 variant
[4] = target: KIR2DL5 D0 variant R52H expressed on 3T3 cells (human, UniProt Q8N109 22-375); assay: as above
[5] = target: KIR2DL5 D0 variant P112S expressed on 3T3 cells (human, UniProt Q8N109 22-375); assay: as above
[6] = target: KIR2DL5 D0 variant T46S expressed on 3T3 cells (human, UniProt Q8N109 22-375); assay: as above
Y298F = target: T3, Y298F; assay: flow cytometry, transduced primary NK cells
T3 construct: also called KIR2DL5 Y298F (ITIM mutant) on transduced primary NK cells
Experimental: (§2) The KIR2DL5⁻ primary NK cells were transduced with WT KIR2DL5 or the indicated mutants, and then examined for protein expression with F8B30 (open) or mIgG1 (shaded). NC, negative control. Data are representative of 2 independent experiments. (B and C) Transduced primary NK cells were treated with (+) or without (−) pervanadate (VO₄) for 5 minutes. Cell lysates were immunoprecipitated with anti-KIR2DL5 antibodies. Phospho-tyrosine (4G10), SHP-1, SHP-2, and total KIR2DL5 were detected by immunoblots (B). Quantification of p-Tyr, SHP-1, and SHP-2 association with WT or mutant KIR2DL5 in VO₄-treated NK cells (C). WCL, whole-cell lysates. (D) Representative imaging of cell conjugates acquired upon the indicated transduced primary NK and PVR/Raji cell contact followed by staining with anti-KIR2DL5 mAb and DAPI. Scale bars: […]. (E) Lysis of scramble control or PVR^KO A427 (top) and Jurkat (bottom) by WT or mutant KIR2DL5-transduced primary NK cells at the indicated E/T ratios. Data are mean for duplicate measurements and representative of 3 independent experiments with 3 different donors. In A, and B, data are representative of 3 independent experiments. *P<0.05, **P<0.01, ***P<0.001, ****P<0.0001, by 1-way ANOVA (C), or paired Student's t test (D).
(§3) Primary NK cell transduction. KIR2DL5 wild type and variants of ITIM/ITSM expressed on the surface of KIR2DL5⁻ primary NK cells were introduced by lentiviral transduction. Lentivirus was produced in HEK293T cells cotransfected with psPAX, pMD2.G, and a lentiviral backbone pSin vector (a gift from the Alec Zhang laboratory, Department of Physiology, University of Texas Southwestern Medical Center, Dallas, Texas, USA) containing the full-length gene sequence of KIR2DL5A*001 using jetPRIME reagents (Polyplus Transfection). Virus-containing supernatant was harvested 48-72 hours after transfection and filtered through a 0.45 µm filter. Non-tissue-culture-treated plates were coated with retronectin, and virus supernatant was then incubated on the surface of plates at 2,000 g for 120 minutes at 37° C. […]

Y328F = target: T4, Y328F; assay: flow cytometry, transduced primary NK cells
T4 construct: also called KIR2DL5 Y328F (ITSM mutant) on transduced primary NK cells
Experimental: as §2, §3

Y298F/Y328F = target: T5, Y298F/Y328F; assay: flow cytometry, transduced primary NK cells
T5 construct: also called KIR2DL5 Y298F/Y328F (ITIM and ITSM mutant) on transduced primary NK cells
Experimental: as §2, §3

[7] = target: T6, KIR2DL5-Ig fusion protein (KIR2DL5 extracellular domain fused to human IgG1 Fc) (human, UniProt Q8N109 22-240); assay: BLI, Octet RED96; KIR2DL5-Ig captured on anti-human Fc biosensors, mAb in solution; global 1:1 fit
T6 construct: A D0-only fusion (H22-A128) also exists; also called KIR2DL5-human Ig fusion protein; KIR2DL5 DO-D2-Ig; not shown: human IgG1 Fc tag
Experimental: Biolayer interferometry. The affinities of anti-KIR2DL5 mAbs were analyzed by biolayer interferometry using an Octet RED96 system (ForteBio, Pall LLC). Briefly, anti-human Fc capture biosensors (ForteBio, Pall LLC) were preloaded with KIR2DL5-Ig and then dipped into a solution containing mAb at 2-fold serial dilutions (from 200 to 1.5 μg/mL). Data were analyzed using Forte Pall (Port Washington, New York, USA) software 9.0. The global data fitting to a 1:1 binding model was used to estimate values for the Kₒₙ (association rate constant), Koff (dissociation rate constant), and KD (equilibrium dissociation constant).

T6 sequence (Q8N109 22-240): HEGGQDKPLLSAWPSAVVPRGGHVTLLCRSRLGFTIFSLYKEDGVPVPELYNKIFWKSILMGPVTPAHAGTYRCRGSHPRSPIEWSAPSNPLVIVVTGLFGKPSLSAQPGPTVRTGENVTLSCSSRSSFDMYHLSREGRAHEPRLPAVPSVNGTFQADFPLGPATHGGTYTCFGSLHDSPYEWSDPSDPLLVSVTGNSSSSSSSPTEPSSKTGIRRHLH
Chain of KIR2DL5 D0 variant T46S expressed on 3T3 cells (Q8N109 22-375 T46S): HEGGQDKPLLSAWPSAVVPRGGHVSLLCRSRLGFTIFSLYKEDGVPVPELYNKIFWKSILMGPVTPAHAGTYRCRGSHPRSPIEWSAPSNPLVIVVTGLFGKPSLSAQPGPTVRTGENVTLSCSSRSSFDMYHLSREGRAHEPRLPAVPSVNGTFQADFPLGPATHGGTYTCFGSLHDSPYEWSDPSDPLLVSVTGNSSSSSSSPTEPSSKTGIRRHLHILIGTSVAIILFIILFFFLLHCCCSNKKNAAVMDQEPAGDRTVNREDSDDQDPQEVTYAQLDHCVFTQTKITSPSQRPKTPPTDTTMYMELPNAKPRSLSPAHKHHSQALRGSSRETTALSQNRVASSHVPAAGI
T3 sequence (receptor chain, as listed by the source Y298F Y298F limits assumed): as the sequence (Q8N109 22-375 T46S) above, with S25T, Y277F counted along it
Chain of KIR2DL5 D0 variant P112S expressed on 3T3 cells (Q8N109 22-375 P112S): as the sequence (Q8N109 22-375 T46S) above, with S25T, P91S counted along it
Chain of KIR2DL5 D0 variant R52H expressed on 3T3 cells (Q8N109 22-375 R52H): as the sequence (Q8N109 22-375 T46S) above, with S25T, R31H counted along it
T5 sequence (receptor chain, as listed by the source Y298F Y328F Y298F Y328F limits assumed): as the sequence (Q8N109 22-375 T46S) above, with S25T, Y277F, Y307F counted along it
Chain of KIR2DL5 D0 variant G97S expressed on 3T3 cells (Q8N109 22-375 G97S): as the sequence (Q8N109 22-375 T46S) above, with S25T, G76S counted along it
T1 sequence (chain, as listed by the source): as the sequence (Q8N109 22-375 T46S) above, with S25T, N152D, G174S counted along it
T4 sequence (receptor chain, as listed by the source Y328F Y328F limits assumed): as the sequence (Q8N109 22-375 T46S) above, with S25T, Y307F counted along it
T2 sequence (Q8N109 119-375, stated change not applied): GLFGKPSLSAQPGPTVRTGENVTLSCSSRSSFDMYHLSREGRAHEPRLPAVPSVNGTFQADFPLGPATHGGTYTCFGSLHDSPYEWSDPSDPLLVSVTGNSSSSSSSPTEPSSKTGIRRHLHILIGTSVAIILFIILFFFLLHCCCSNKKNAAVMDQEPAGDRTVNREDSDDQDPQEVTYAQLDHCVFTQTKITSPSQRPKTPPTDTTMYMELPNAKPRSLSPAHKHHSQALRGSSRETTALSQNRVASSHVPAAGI

- binding result [1]: binds
- binding result [2]: no binding (tested: 5 µg/mL)
- EC50 [3]: 43.6 nM
- EC50 [4]: 9.2 nM
- EC50 [5]: 9.4 nM
- EC50 [6]: 8.6 nM
- binding result (Y298F): binds
- binding result (Y328F): binds
- binding result (Y298F/Y328F): binds
- Kd [7]: 0.723 nM
- koff [7]: 0.000444 s⁻¹
- kon [7]: 615000 M⁻¹ s⁻¹
B1: anti-KIR2DL5 mAb clone F8B30 (antibody, V domains shown)
VH: QIQLVQSGPELKKPGETVKISCKASGYTFTDYSMHWVKQAPGKGLKWMGWINTETGGPTYADDFKGRFAFSLETSATTAYLQINNLKNEDTATYFCSRDVDLYFDYWGQGTTLTVS
VL: DIQMTQSPASLSASVGETVTITCRTSENIYSYLAWYQQKQGKSPQLLVYNAKTLVEGVPSRFSGSGSGTQFSVKINSLQPEDFGNYYCQHHYGIPFTFGGGTKLEIK
notes: also called F8B30 (IgG1, κ)
